Tests used:
[1] = target: human transferrin receptor-1 on human TfR-positive cells (SK-OV-3, hCMEC/D3) (human) (UniProt P02786); assay: flow cytometry on SK-OV-3 cells, 200 nM Ztaq-ABD (negative control) co-incubated with 25 µg/mL Tf-488
[2] = target: human transferrin receptor-1 on human TfR-positive cells (SK-OV-3, hCMEC/D3) (human) (UniProt P02786); assay: flow cytometry on SK-OV-3 cells, 600 nM Ztaq-ABD (negative control) co-incubated with 25 µg/mL Tf-488

Sequence of UniProt P02786 (P02786 whole entry): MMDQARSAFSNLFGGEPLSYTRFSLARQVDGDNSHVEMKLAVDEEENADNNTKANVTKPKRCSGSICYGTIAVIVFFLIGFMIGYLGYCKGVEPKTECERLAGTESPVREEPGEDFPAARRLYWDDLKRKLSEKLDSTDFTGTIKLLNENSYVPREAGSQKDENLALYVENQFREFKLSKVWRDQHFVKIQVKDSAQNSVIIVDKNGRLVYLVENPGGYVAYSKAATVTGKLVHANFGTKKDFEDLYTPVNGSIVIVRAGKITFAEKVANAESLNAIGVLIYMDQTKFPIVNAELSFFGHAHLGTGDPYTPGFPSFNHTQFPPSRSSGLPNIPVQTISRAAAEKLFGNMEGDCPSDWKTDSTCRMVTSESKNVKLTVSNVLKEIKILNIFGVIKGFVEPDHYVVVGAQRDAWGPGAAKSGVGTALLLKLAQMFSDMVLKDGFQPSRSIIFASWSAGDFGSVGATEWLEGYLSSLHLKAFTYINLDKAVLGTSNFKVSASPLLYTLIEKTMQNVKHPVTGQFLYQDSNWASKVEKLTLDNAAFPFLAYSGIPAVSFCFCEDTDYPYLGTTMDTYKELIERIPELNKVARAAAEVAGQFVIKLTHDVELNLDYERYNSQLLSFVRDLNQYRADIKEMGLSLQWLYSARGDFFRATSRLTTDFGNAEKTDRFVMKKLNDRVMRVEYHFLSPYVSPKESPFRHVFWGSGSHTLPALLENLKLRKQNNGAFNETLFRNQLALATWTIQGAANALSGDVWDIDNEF

MFI 640/660 nm [1] [MFI]	MFI 640/660 nm [2] [MFI]	Substance
1.62		Ztaq-ABD
	3.69	Ztaq-ABD (designed binder)

— patent EP4424703A1
